B1: SPDEF (parent)
chain: YPEDSSWAAKAPGASSREEPPEEP
B2: CDC25A (parent)
chain: QLIDPDENKENEAFEFKKPVRPVS

Variants of: B1
Experiment: protein stability index of a GFP-peptide fusion (GPS, HEK-293T) (PSI 1-6); higher = more stable
Settings: c terminus: a fixed tail appended
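Also: lentivirally expressed fusions sorted by FACS into six bins by GFP to DsRed ratio, PSI derived from sequencing read proportions per bin multiplied by bin number.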

Row | Variant | protein stability index
1 | K10Q | 3.11
2 | K10F | 2.79
3 | K10A | 2.79
4 | K10N | 4.19
5 | K10Y | 1.79
6 | K10I | 3.65
7 | K10H | 3.26
8 | K10S | 3.69
9 | K10T | 3.36
10 | K10C | 2.56
11 | A14T | 4.03
12 | A14Y | 3.89
13 | A14I | 4.56
14 | A14E | 3.88
15 | A14H | 3.77
16 | A14R | 4.16
17 | A14Q | 4.08
18 | A14M | 3.15
19 | A14W | 3.31
20 | A14S | 4.95
21 | A14P | 3.94
22 | A14D | 4.37
23 | S5V | 4.71
24 | S5E | 5.72
25 | S5A | 4.69

Row | Variant | protein stability index
26 | S5W | 3.99
27 | S5T | 4.55
28 | S5Q | 4.03
29 | S5M | 4.58
30 | S5K | 4.49
31 | S5H | 3.99
32 | S5N | 4.16
33 | S5P | 4.06
34 | S5F | 3.86
35 | S5R | 4.26
36 | S5C | 3.24
37 | E22A | 4.38
38 | E22K | 3.88
39 | E22S | 2.71
40 | E22P | 3.06
41 | E22L | 3.92
42 | E22T | 4.31
43 | E22H | 4.06
44 | E22V | 4.23
45 | E22D | 3.4
46 | E22G | 2.79
47 | E22F | 3.43
48 | E22Y | 3.78
49 | E22C | 3.49
50 | E18C | 2.82

Row | Variant | protein stability index
51 | E18R | 4.32
52 | E18T | 3.24
53 | E18V | 4.17
54 | E18Y | 3.46
55 | E18S | 4.18
56 | E18N | 3.43
57 | E18M | 3.77
58 | E18Q | 3.37
59 | E18W | 3.3
60 | E18D | 4.86
61 | E18F | 3.05
62 | E18I | 4
63 | E18H | 3.86
64 | E23L | 3.45
65 | E23N | 3.58
66 | E23D | 4.44
67 | E23Y | 3.65
68 | E23C | 4.3
69 | E23G | 3.9
70 | E23F | 3.89
71 | E23R | 3.6
72 | E23A | 4.06
73 | E23K | 2.69
74 | E23S | 3.1
75 | S15L | 3.58

Row | Variant | protein stability index
76 | S15D | 4.61
77 | S15M | 3.77
78 | S15K | 3.23
79 | S15I | 4.11
80 | S15R | 3.96
81 | S15Y | 3.1
82 | S15P | 4.36
83 | S15V | 2.7
84 | S15T | 3.97
85 | S15G | 3.53
86 | S15N | 3.9
87 | S15Q | 3.47
88 | S15E | 4.14
89 | S15H | 4.72
90 | S15F | 2.86
91 | A11G | 3.68
92 | A11R | 4.78
93 | A11W | 3.56
94 | A11K | 3.9
95 | A11N | 4.59
96 | A11L | 3.76
97 | A11Y | 3.75
98 | A11E | 3.99
99 | A11P | 4.6
100 | A11F | 3.71

Row | Variant | protein stability index
101 | A11M | 2.63
102 | A11I | 3.51
103 | A11S | 4.01
104 | A11D | 4.51
105 | A11H | 4.13
106 | E3G | 2.72
107 | E3P | 3.15
108 | E3R | 3.78
109 | E3A | 2.01
110 | E3F | 2.99
111 | E3I | 4.92
112 | E3L | 4.69
113 | E3M | 2.49
114 | E3N | 2.49
115 | E3W | 2.18
116 | E3V | 4.09
117 | E3K | 3.9
118 | E3S | 2.66
119 | E3H | 3.05
120 | E3T | 3.82
121 | E3D | 4.24
122 | E3Y | 2.37
123 | E3Q | 3.24
124 | E19F | 3.06
125 | E19W | 3.53

Row | Variant | protein stability index
126 | E19V | 4.48
127 | E19S | 4.97
128 | E19K | 3.91
129 | E19C | 3.58
130 | E19N | 4.32
131 | E19Q | 3.69
132 | E19M | 4.07
133 | E19D | 3.37
134 | E19T | 4.49
135 | E19H | 3.12
136 | P24E | 3.48
137 | P24D | 4.17
138 | P24H | 3.42
139 | P24C | 4.4
140 | P24R | 3.86
141 | P24Y | 4.17
142 | P24N | 4.54
143 | D4P | 2.09
144 | D4N | 2.4
145 | D4T | 2.39
146 | D4I | 3.25
147 | D4Q | 3.09
148 | A9V | 3.82
149 | A9I | 3.23
150 | A9P | 4.23

Row | Variant | protein stability index
151 | A9H | 3.4
152 | A9D | 5.61
153 | A9K | 3.97
154 | A9E | 5.42
155 | A9T | 4.32
156 | A9W | 3.11
157 | A9M | 4.11
158 | A9R | 4.36
159 | A9Y | 2.88
160 | A9Q | 4.04
161 | S6N | 4.9
162 | S6T | 4.57
163 | S6Y | 3.85
164 | S6V | 2.94
165 | S6H | 4.38
166 | S6I | 2.51
167 | S6A | 3.6
168 | S6F | 1.84
169 | S6W | 1.27
170 | S6E | 5.03
171 | R17V | 4.3
172 | R17S | 4
173 | R17F | 4.27
174 | R17C | 3.96
175 | R17M | 4.22

Row | Variant | protein stability index
176 | R17T | 4.06
177 | R17L | 3.62
178 | R17H | 4.67
179 | R17Q | 4.06
180 | R17W | 4.23
181 | R17N | 4.14
182 | R17I | 4.85
183 | R17A | 3.11
184 | R17P | 3.85
185 | S16C | 3.83
186 | S16T | 2.85
187 | S16F | 4.2
188 | S16Y | 3.73
189 | S16P | 3.72
190 | S16D | 4.23
191 | S16N | 3.53
192 | S16A | 3.72
193 | S16M | 4.67
194 | S16V | 3.78
195 | S16W | 3.71
196 | S16K | 4.51
197 | S16Q | 2.88
198 | S16I | 3.86
199 | S16H | 3.92
200 | S16L | 4.36

Row | Variant | protein stability index
201 | G13F | 3.87
202 | G13Y | 3.49
203 | G13A | 3.64
204 | G13E | 4.05
205 | G13Q | 4.07
206 | G13N | 4.22
207 | G13L | 4.09
208 | G13D | 3.36
209 | G13T | 3.91
210 | G13P | 3.94
211 | P12S | 4.16
212 | P12M | 3.68
213 | P12I | 3.62
214 | P12T | 4.58
215 | P12L | 3.33
216 | P12D | 3.97
217 | P12F | 3.59
218 | P12N | 3.89
219 | P12Q | 4.18
220 | P12H | 4.11
221 | P12R | 3.76
222 | P12C | 3.31
223 | P12A | 4.12
224 | A8Y | 3.17
225 | A8H | 2.87

Row | Variant | protein stability index
226 | A8N | 4.45
227 | A8F | 3.33
228 | A8L | 4.72
229 | A8I | 3.72
230 | A8Q | 4.34
231 | A8D | 5.61
232 | A8R | 3.28
233 | A8P | 5.38
234 | A8C | 4.09
235 | P20K | 3.89
236 | P20T | 3.8
237 | P20I | 3.82
238 | P20G | 4.43
239 | P20Q | 3.46
240 | P20R | 2.98
241 | P20L | 3.11
242 | P20E | 4.2
243 | P20N | 3.62
244 | P20V | 4.26
245 | P21T | 3.64
246 | P21V | 3.91
247 | P21L | 4.04
248 | P21E | 4.26
249 | P21H | 4.13
250 | P21W | 3.66

Row | Variant | protein stability index
251 | P21A | 3.63
252 | P21G | 4.04
253 | P21Y | 4.3
254 | P21N | 4.12
255 | P21R | 4.25
256 | P21F | 3.76
257 | P21K | 3.29
258 | W7M | 4.42
259 | W7N | 5.91
260 | W7T | 5.98
261 | W7V | 5.52
262 | W7F | 5.86
263 | W7Y | 5.92
264 | W7S | 5.79
265 | W7R | 5.96
266 | W7E | 5.88
267 | W7D | 6
268 | W7H | 5.95
269 | W7P | 5.38
270 | W7A | 5.85
271 | W7L | 5.68
272 | P2T | 2.95
273 | P2R | 5.43
274 | P2W | 4.68

Variants of: B2
Experiment: as above
Settings: c terminus: a fixed tail appended

Row | Variant | protein stability index
275 | I3K | 3.86
276 | I3Y | 3.74
277 | I3P | 4.3
278 | I3Q | 3.95
279 | I3V | 4.05
280 | I3N | 3.6
281 | I3L | 3.15
282 | I3D | 4.64
283 | I3C | 3.92
284 | I3T | 4.12
285 | I3H | 4.59
286 | I3E | 4.74
287 | I3A | 4.23
288 | I3M | 3.75
289 | I3F | 3.91
290 | I3R | 4.75
291 | I3G | 4.58
292 | L2V | 3.29
293 | L2Y | 4.17
294 | L2T | 4.31

Row | Variant | protein stability index
295 | L2C | 4.64
296 | L2F | 3.35
297 | L2A | 4.69
298 | L2W | 3.43
299 | L2D | 4.51
300 | L2K | 4.29
301 | L2P | 5.03
302 | L2M | 3.72
303 | L2I | 2.73
304 | L2Q | 4.41
305 | L2N | 4.58
306 | L2S | 4.16
307 | L2E | 5.02
308 | L2H | 4.54
309 | D4H | 4.23
310 | D4K | 3.87
311 | D4F | 4.09
312 | D4I | 3.83
313 | D4E | 3.99
314 | D4G | 3.56

Row | Variant | protein stability index
315 | D4A | 3.67
316 | D4L | 3.91
317 | D4C | 3.37
318 | Q1Y | 2.32
319 | Q1E | 4.56
320 | Q1P | 4.06
321 | Q1V | 3.6
322 | Q1A | 4.36
323 | Q1H | 4.72
324 | Q1D | 2.88
325 | Q1I | 3.39
326 | Q1M | 3.97
327 | Q1F | 4.05
328 | Q1N | 3.83
329 | Q1T | 3.58
330 | Q1L | 2.93
331 | Q1W | 2.44
332 | Q1C | 3.81
333 | Q1R | 3.44
334 | Q1S | 4.43

From the supplement of paper PMC10567573
